Laboratory results reported in paper PMC12173559, “The Functional DPP4 Receptor Is an Indispensable Factor Mediating the Immune Performance of Mucosal Vaccines for Middle East Respiratory Syndrome” (Transboundary and Emerging Diseases, 2025).

Molecular target: T1, MERS-CoV receptor binding domain (RBD), biotinylated (MERS-CoV, UniProt K9N5Q8)
T1 construct: also called MERS-CoV RBD; MERS-CoV spike RBD
T1 sequence: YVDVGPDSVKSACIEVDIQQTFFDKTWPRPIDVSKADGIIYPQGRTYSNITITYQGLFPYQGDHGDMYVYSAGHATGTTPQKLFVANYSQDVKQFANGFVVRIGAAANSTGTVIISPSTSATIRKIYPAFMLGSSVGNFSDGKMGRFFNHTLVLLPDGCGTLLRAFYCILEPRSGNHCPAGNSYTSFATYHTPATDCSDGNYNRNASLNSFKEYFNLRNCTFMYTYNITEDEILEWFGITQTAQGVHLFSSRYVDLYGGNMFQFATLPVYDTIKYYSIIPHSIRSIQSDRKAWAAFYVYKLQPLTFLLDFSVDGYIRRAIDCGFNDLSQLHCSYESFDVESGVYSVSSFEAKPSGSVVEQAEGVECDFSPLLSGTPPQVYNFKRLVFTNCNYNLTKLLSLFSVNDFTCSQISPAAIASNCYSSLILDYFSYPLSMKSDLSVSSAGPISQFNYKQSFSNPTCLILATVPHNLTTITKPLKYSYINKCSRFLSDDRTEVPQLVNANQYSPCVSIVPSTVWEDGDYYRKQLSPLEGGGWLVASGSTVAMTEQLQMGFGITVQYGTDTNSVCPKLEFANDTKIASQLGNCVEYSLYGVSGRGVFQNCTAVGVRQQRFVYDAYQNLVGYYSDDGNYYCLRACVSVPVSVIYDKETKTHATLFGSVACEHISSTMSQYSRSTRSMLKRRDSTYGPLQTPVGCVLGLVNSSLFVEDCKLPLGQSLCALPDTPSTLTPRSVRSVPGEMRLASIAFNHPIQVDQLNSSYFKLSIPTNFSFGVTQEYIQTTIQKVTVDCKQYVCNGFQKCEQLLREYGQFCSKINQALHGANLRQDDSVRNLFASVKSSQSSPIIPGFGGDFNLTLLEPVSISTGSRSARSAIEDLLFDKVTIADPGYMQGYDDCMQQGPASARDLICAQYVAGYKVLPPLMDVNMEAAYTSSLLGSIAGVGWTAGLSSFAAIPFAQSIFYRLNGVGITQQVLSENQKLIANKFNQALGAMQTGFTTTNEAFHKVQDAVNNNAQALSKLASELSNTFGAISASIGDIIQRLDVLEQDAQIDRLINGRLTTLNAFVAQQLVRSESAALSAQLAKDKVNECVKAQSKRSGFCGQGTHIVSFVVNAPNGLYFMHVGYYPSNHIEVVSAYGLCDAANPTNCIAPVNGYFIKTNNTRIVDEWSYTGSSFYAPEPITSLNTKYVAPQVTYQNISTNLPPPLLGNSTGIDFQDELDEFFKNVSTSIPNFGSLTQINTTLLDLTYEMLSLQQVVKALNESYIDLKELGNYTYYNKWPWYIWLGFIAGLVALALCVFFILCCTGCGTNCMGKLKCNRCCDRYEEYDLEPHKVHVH
Test: BLI; […] (10 µg/mL) […] (SA) biosensor for 300 s; analyte in kinetic buffer (PBST, 0.1% BSA) […], association 120 s, dissociation 180 s; […]
Details: both partners purified

B1: human DPP4 (receptor)
chain: SRKTYTLTDYLKNTYRLKLYSLRWISDHEYLYKQENNILVFNAEYGNSSVFLENSTFDEFGHSINDYSISPDGQFILLEYNYVKQWRHSYTASYDIYDLNKRQLITEERIPNNTQWVTWSPVGHKLAYVWNNDIYVKIEPNLPSYRITWTGKEDIIYNGITDWVYEEEVFSAYSALWWSPNGTFLAYAQFNDTEVPLIEYSFYSDESLQYPKTVRVPYPKAGAVNPTVKFFVVNTDSLSSVTNATSIQITAPASMLIGDHYLCDVTWATQERISLQWLRRIQNYSVMDICDYDESSGRWNCLVARQHIEMSTTGWVGRFRPSEPHFTLDGNSFYKIISNEEGYRHICYFQIDKKDCTFITKGTWEVIGIEALTSDYLYYISNEYKGMPGGRNLYKIQLSDYTKVTCLSCELNPERCQYYSVSFSKEAKYYQLRCSGPGLPLYTLHSSVNDKGLRVLEDNSALDKMLQNVQMPSKKLDFIILNETKFWYQMILPPHFDKSKKYPLLLDVYAGPCSQKADTVFRLNWATYLASTENIIVASFDGRGSGYQGDKIMHAINRRLGTFEVEDQIEAARQFSKMGFVDNKRIAIWGWSYGGYVTSMVLGSGSGVFKCGIAVAPVSRWEYYDSVYTERYMGLPTPEDNLDHYRNSTVMSRAENFKQVEYLLIHGTADDNVHFQQSAQISKALVDVGVDFQAMWYTDEDHGIASSTAHQHIYTHMSHFIKQCFSLP
Kd: 55.1 nM
